Data published in US20220204580A1 (AstraZeneca / MedImmune, published 2022).
One block for each binder: values may come before it. Numbered stars: 1 amine (or outer) side, 2 acyl side, 3 side chain; on linkers, the order of the positions; unused ones are H or OH. Bridge positions count the residues as written; N and C are the ends. Square brackets hold non-standard residues; d marks the D form. Side chains are listed from the residue outwards. Ends that are not written are not given here. * marks the point of attachment. C18 diacid = O=C(O)CCCCCCCCCCCCCCCCC(=O)*; γGlu = O=C(O)[C@H](CCC(=O)[*:2])N[*:1]; αMeF = C[C@](N)(Cc1ccccc1)C(=O)O; Aib = CC(C)(N)C(=O)O

Assays:
[1] = biological target: T1, human calcitonin receptor (human, UniProt P30988 25-474); experiment: cell-based or functional assay
T1 sequence (looked up): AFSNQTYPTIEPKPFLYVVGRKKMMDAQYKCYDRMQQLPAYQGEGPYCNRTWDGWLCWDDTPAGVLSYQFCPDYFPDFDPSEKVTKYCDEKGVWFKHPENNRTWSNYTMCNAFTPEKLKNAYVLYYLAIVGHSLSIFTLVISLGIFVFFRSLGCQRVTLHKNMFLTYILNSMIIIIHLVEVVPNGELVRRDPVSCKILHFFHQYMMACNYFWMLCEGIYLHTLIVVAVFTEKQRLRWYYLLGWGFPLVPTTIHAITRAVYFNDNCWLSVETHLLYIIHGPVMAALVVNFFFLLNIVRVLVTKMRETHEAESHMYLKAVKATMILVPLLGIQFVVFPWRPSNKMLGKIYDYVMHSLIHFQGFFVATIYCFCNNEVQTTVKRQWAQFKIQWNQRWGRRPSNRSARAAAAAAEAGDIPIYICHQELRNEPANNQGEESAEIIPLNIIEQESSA

[2] = biological target: T2, human amylin receptor (calcitonin receptor co-expressed with receptor activity modifying protein, RAMP3) (human, UniProt P30988 25-474; O60896 24-148); experiment: cell-based or functional assay
T2 sequence (looked up) 1: T1 sequence (looked up)
T2 sequence (looked up) 2: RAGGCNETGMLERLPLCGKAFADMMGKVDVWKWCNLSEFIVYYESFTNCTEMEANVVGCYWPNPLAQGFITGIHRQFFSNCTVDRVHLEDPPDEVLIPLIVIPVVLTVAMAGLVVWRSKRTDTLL

B1: Peptide 11 (SEQ ID NO: 11) (peptide)
peptide: K([γGlu-γGlu-C18 diacid])CNTATCATQRLAEFLRHSSNN[αMeF]GPILPPTNVGSNTY-NH2
modifications: disulfide 2-7; N-terminus assumed
SMILES: CC[C@H](C)[C@H](NC(=O)[C@@H]1CCCN1C(=O)CNC(=O)[C@](C)(Cc1ccccc1)NC(=O)[C@H](CC(N)=O)NC(=O)[C@H](CC(N)=O)NC(=O)[C@H](CO)NC(=O)[C@H](CO)NC(=O)[C@H](Cc1c[nH]cn1)NC(=O)[C@H](CCCNC(=N)N)NC(=O)[C@H](CC(C)C)NC(=O)[C@H](Cc1ccccc1)NC(=O)[C@H](CCC(=O)O)NC(=O)[C@H](C)NC(=O)[C@H](CC(C)C)NC(=O)[C@H](CCCNC(=N)N)NC(=O)[C@H](CCC(N)=O)NC(=O)[C@@H](NC(=O)[C@H](C)NC(=O)[C@@H]1CSSC[C@H](NC(=O)[C@@H](N)CCCCNC(=O)CC[C@H](NC(=O)CC[C@H](NC(=O)CCCCCCCCCCCCCCCCC(=O)O)C(=O)O)C(=O)O)C(=O)N[C@@H](CC(N)=O)C(=O)N[C@@H]([C@@H](C)O)C(=O)N[C@@H](C)C(=O)N[C@@H]([C@@H](C)O)C(=O)N1)[C@@H](C)O)C(=O)N[C@@H](CC(C)C)C(=O)N1CCC[C@H]1C(=O)N1CCC[C@H]1C(=O)N[C@H](C(=O)N[C@@H](CC(N)=O)C(=O)N[C@H](C(=O)NCC(=O)N[C@@H](CO)C(=O)N[C@@H](CC(N)=O)C(=O)N[C@H](C(=O)N[C@@H](Cc1ccc(O)cc1)C(N)=O)[C@@H](C)O)C(C)C)[C@@H](C)O
EC50 (cAMP production) [1]: 3.64 nM
EC50 (cAMP production) [2]: 0.177 nM
Ratio (EC50 hCTR / EC50 hAMYR3) [2]: 21

B4: Peptide 100 (SEQ ID NO: 100) (peptide)
peptide: K([γGlu-C18 diacid])KCNTATCATQRLANFL[Aib]HSSNNFGPILPPTNV[Aib]SNTY-NH2
modifications: disulfide 3-8; N-terminus assumed
SMILES: CC[C@H](C)[C@H](NC(=O)[C@@H]1CCCN1C(=O)CNC(=O)[C@H](Cc1ccccc1)NC(=O)[C@H](CC(N)=O)NC(=O)[C@H](CC(N)=O)NC(=O)[C@H](CO)NC(=O)[C@H](CO)NC(=O)[C@H](Cc1c[nH]cn1)NC(=O)C(C)(C)NC(=O)[C@H](CC(C)C)NC(=O)[C@H](Cc1ccccc1)NC(=O)[C@H](CC(N)=O)NC(=O)[C@H](C)NC(=O)[C@H](CC(C)C)NC(=O)[C@H](CCCNC(=N)N)NC(=O)[C@H](CCC(N)=O)NC(=O)[C@@H](NC(=O)[C@H](C)NC(=O)[C@@H]1CSSC[C@H](NC(=O)[C@H](CCCCN)NC(=O)[C@@H](N)CCCCNC(=O)CC[C@H](NC(=O)CCCCCCCCCCCCCCCCC(=O)O)C(=O)O)C(=O)N[C@@H](CC(N)=O)C(=O)N[C@@H]([C@@H](C)O)C(=O)N[C@@H](C)C(=O)N[C@@H]([C@@H](C)O)C(=O)N1)[C@@H](C)O)C(=O)N[C@@H](CC(C)C)C(=O)N1CCC[C@H]1C(=O)N1CCC[C@H]1C(=O)N[C@H](C(=O)N[C@@H](CC(N)=O)C(=O)N[C@H](C(=O)NC(C)(C)C(=O)N[C@@H](CO)C(=O)N[C@@H](CC(N)=O)C(=O)N[C@H](C(=O)N[C@@H](Cc1ccc(O)cc1)C(N)=O)[C@@H](C)O)C(C)C)[C@@H](C)O
EC50 (cAMP production) [1]: 0.459 nM
EC50 (cAMP production) [2]: 0.364 nM
Ratio (EC50 hCTR / EC50 hAMYR3) [2]: 1

B5: Peptide 101 (SEQ ID NO: 101) (peptide)
peptide: K([γGlu-C18 diacid])KCNTATCATQRLANFL[Aib]HSSNNFGPILPPTNVG[Aib]NTY-NH2
modifications: disulfide 3-8; N-terminus assumed
SMILES: CC[C@H](C)[C@H](NC(=O)[C@@H]1CCCN1C(=O)CNC(=O)[C@H](Cc1ccccc1)NC(=O)[C@H](CC(N)=O)NC(=O)[C@H](CC(N)=O)NC(=O)[C@H](CO)NC(=O)[C@H](CO)NC(=O)[C@H](Cc1c[nH]cn1)NC(=O)C(C)(C)NC(=O)[C@H](CC(C)C)NC(=O)[C@H](Cc1ccccc1)NC(=O)[C@H](CC(N)=O)NC(=O)[C@H](C)NC(=O)[C@H](CC(C)C)NC(=O)[C@H](CCCNC(=N)N)NC(=O)[C@H](CCC(N)=O)NC(=O)[C@@H](NC(=O)[C@H](C)NC(=O)[C@@H]1CSSC[C@H](NC(=O)[C@H](CCCCN)NC(=O)[C@@H](N)CCCCNC(=O)CC[C@H](NC(=O)CCCCCCCCCCCCCCCCC(=O)O)C(=O)O)C(=O)N[C@@H](CC(N)=O)C(=O)N[C@@H]([C@@H](C)O)C(=O)N[C@@H](C)C(=O)N[C@@H]([C@@H](C)O)C(=O)N1)[C@@H](C)O)C(=O)N[C@@H](CC(C)C)C(=O)N1CCC[C@H]1C(=O)N1CCC[C@H]1C(=O)N[C@H](C(=O)N[C@@H](CC(N)=O)C(=O)N[C@H](C(=O)NCC(=O)NC(C)(C)C(=O)N[C@@H](CC(N)=O)C(=O)N[C@H](C(=O)N[C@@H](Cc1ccc(O)cc1)C(N)=O)[C@@H](C)O)C(C)C)[C@@H](C)O
EC50 (cAMP production) [1]: 0.441 nM
EC50 (cAMP production) [2]: 0.177 nM
Ratio (EC50 hCTR / EC50 hAMYR3) [2]: 2

B6: Peptide 97 (SEQ ID NO: 97) (peptide)
peptide: K([γGlu-C18 diacid])KCNTATCATQRLANFL[Aib]HSSNNFGPILP[Aib]TNVGSNTY-NH2
modifications: disulfide 3-8; N-terminus assumed
SMILES: CC[C@H](C)[C@H](NC(=O)[C@@H]1CCCN1C(=O)CNC(=O)[C@H](Cc1ccccc1)NC(=O)[C@H](CC(N)=O)NC(=O)[C@H](CC(N)=O)NC(=O)[C@H](CO)NC(=O)[C@H](CO)NC(=O)[C@H](Cc1c[nH]cn1)NC(=O)C(C)(C)NC(=O)[C@H](CC(C)C)NC(=O)[C@H](Cc1ccccc1)NC(=O)[C@H](CC(N)=O)NC(=O)[C@H](C)NC(=O)[C@H](CC(C)C)NC(=O)[C@H](CCCNC(=N)N)NC(=O)[C@H](CCC(N)=O)NC(=O)[C@@H](NC(=O)[C@H](C)NC(=O)[C@@H]1CSSC[C@H](NC(=O)[C@H](CCCCN)NC(=O)[C@@H](N)CCCCNC(=O)CC[C@H](NC(=O)CCCCCCCCCCCCCCCCC(=O)O)C(=O)O)C(=O)N[C@@H](CC(N)=O)C(=O)N[C@@H]([C@@H](C)O)C(=O)N[C@@H](C)C(=O)N[C@@H]([C@@H](C)O)C(=O)N1)[C@@H](C)O)C(=O)N[C@@H](CC(C)C)C(=O)N1CCC[C@H]1C(=O)NC(C)(C)C(=O)N[C@H](C(=O)N[C@@H](CC(N)=O)C(=O)N[C@H](C(=O)NCC(=O)N[C@@H](CO)C(=O)N[C@@H](CC(N)=O)C(=O)N[C@H](C(=O)N[C@@H](Cc1ccc(O)cc1)C(N)=O)[C@@H](C)O)C(C)C)[C@@H](C)O
EC50 (cAMP production) [1]: 0.944 nM
EC50 (cAMP production) [2]: 0.684 nM
Ratio (EC50 hCTR / EC50 hAMYR3) [2]: 1

Now from value to binder:

EC50 (cAMP production) [1]: 1.82 nM
EC50 (cAMP production) [2]: 3.8 nM
Ratio (EC50 hCTR / EC50 hAMYR3) [2]: 0.5
B2: Peptide 99 (SEQ ID NO: 99) (peptide)
peptide: K([γGlu-C18 diacid])KCNTATCATQRLANFL[Aib]HSSNNFGPILPPTN[Aib]GSNTY-NH2
modifications: disulfide 3-8; N-terminus assumed
SMILES: CC[C@H](C)[C@H](NC(=O)[C@@H]1CCCN1C(=O)CNC(=O)[C@H](Cc1ccccc1)NC(=O)[C@H](CC(N)=O)NC(=O)[C@H](CC(N)=O)NC(=O)[C@H](CO)NC(=O)[C@H](CO)NC(=O)[C@H](Cc1c[nH]cn1)NC(=O)C(C)(C)NC(=O)[C@H](CC(C)C)NC(=O)[C@H](Cc1ccccc1)NC(=O)[C@H](CC(N)=O)NC(=O)[C@H](C)NC(=O)[C@H](CC(C)C)NC(=O)[C@H](CCCNC(=N)N)NC(=O)[C@H](CCC(N)=O)NC(=O)[C@@H](NC(=O)[C@H](C)NC(=O)[C@@H]1CSSC[C@H](NC(=O)[C@H](CCCCN)NC(=O)[C@@H](N)CCCCNC(=O)CC[C@H](NC(=O)CCCCCCCCCCCCCCCCC(=O)O)C(=O)O)C(=O)N[C@@H](CC(N)=O)C(=O)N[C@@H]([C@@H](C)O)C(=O)N[C@@H](C)C(=O)N[C@@H]([C@@H](C)O)C(=O)N1)[C@@H](C)O)C(=O)N[C@@H](CC(C)C)C(=O)N1CCC[C@H]1C(=O)N1CCC[C@H]1C(=O)N[C@H](C(=O)N[C@@H](CC(N)=O)C(=O)NC(C)(C)C(=O)NCC(=O)N[C@@H](CO)C(=O)N[C@@H](CC(N)=O)C(=O)N[C@H](C(=O)N[C@@H](Cc1ccc(O)cc1)C(N)=O)[C@@H](C)O)[C@@H](C)O

EC50 (cAMP production) [1]: 0.972 nM
EC50 (cAMP production) [2]: 0.942 nM
Ratio (EC50 hCTR / EC50 hAMYR3) [2]: 1
B3: Peptide 98 (SEQ ID NO: 98) (peptide)
peptide: K([γGlu-C18 diacid])KCNTATCATQRLANFL[Aib]HSSNNFGPILPPT[Aib]VGSNTY-NH2
modifications: disulfide 3-8; N-terminus assumed
SMILES: CC[C@H](C)[C@H](NC(=O)[C@@H]1CCCN1C(=O)CNC(=O)[C@H](Cc1ccccc1)NC(=O)[C@H](CC(N)=O)NC(=O)[C@H](CC(N)=O)NC(=O)[C@H](CO)NC(=O)[C@H](CO)NC(=O)[C@H](Cc1c[nH]cn1)NC(=O)C(C)(C)NC(=O)[C@H](CC(C)C)NC(=O)[C@H](Cc1ccccc1)NC(=O)[C@H](CC(N)=O)NC(=O)[C@H](C)NC(=O)[C@H](CC(C)C)NC(=O)[C@H](CCCNC(=N)N)NC(=O)[C@H](CCC(N)=O)NC(=O)[C@@H](NC(=O)[C@H](C)NC(=O)[C@@H]1CSSC[C@H](NC(=O)[C@H](CCCCN)NC(=O)[C@@H](N)CCCCNC(=O)CC[C@H](NC(=O)CCCCCCCCCCCCCCCCC(=O)O)C(=O)O)C(=O)N[C@@H](CC(N)=O)C(=O)N[C@@H]([C@@H](C)O)C(=O)N[C@@H](C)C(=O)N[C@@H]([C@@H](C)O)C(=O)N1)[C@@H](C)O)C(=O)N[C@@H](CC(C)C)C(=O)N1CCC[C@H]1C(=O)N1CCC[C@H]1C(=O)N[C@H](C(=O)NC(C)(C)C(=O)N[C@H](C(=O)NCC(=O)N[C@@H](CO)C(=O)N[C@@H](CC(N)=O)C(=O)N[C@H](C(=O)N[C@@H](Cc1ccc(O)cc1)C(N)=O)[C@@H](C)O)C(C)C)[C@@H](C)O
